Measurements published in the supplement of paper PMC10567573.

B1: VDR (parent)
chain: VTLELSQLSMLPHLADLVSYSIQK
B2: DLC1 (parent)
chain: RDAIEALCRRLNTLNKCAVMKLEI

Variants of: B1
Assay: protein stability index of a GFP-peptide fusion (GPS, HEK-293T) (PSI 1-6); higher = more stable
Details: c terminus: a fixed tail appended
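Note: lentivirally expressed fusions sorted by FACS into six bins by GFP to DsRed ratio, PSI derived from sequencing read proportions per bin multiplied by bin number.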

Protein stability index, by site and new letter:
V1: T 3 | R 3.03 | W 2.08 | F 2.61 | K 1.86 | A 1.63 | L 4.07 | P 1.58 | G 2.5 | D 2.29 | S 1.99 | Q 2.66 | M 2.18 | E 1.9 | N 1.81 | Y 2.2 | H 2.44
L3: I 2.53 | H 1.6 | P 2.49 | F 1.95 | K 1.16 | Y 2.81 | W 4.09 | M 3.15 | A 2.21 | V 2.45 | E 1.84 | G 2.67 | C 1.99 | Q 1.96 | N 1.5 | T 1.97 | R 1.53 | D 2.09 | S 1.5
E4: D 3.44 | C 3.83 | F 2.88 | A 2.69
T2: E 2.22 | G 1.76 | S 3.12 | N 3.11 | L 1.75 | V 3.63 | C 4.12 | W 2.48 | R 4.52 | F 3.02 | K 2.4 | I 4.5 | Q 2.22 | H 2.06 | D 1.6 | P 1.42 | M 2.16

Variants of: B2
Assay: as above
Details: c terminus: a fixed tail appended

Protein stability index: each site, then its substitutions
E23: W 3.37 | I 1.47 | Y 1.36 | C 2.07 | G 2.23 | H 2.39 | N 3.12 | F 2.3 | P 2.27 | A 2.38 | D 1.52 | Q 4.6 | K 2.65
K21: E 1.73 | I 2.1 | T 2.06 | N 1.61 | G 1.97 | M 1.69 | A 2.6 | P 1.33 | C 1.39 | R 2.88 | L 2.53 | Y 2.5 | Q 4.24 | S 1.73
R10: F 1.86 | K 3.44 | Q 3.82 | A 2.67 | C 3.31 | V 1.86 | T 3.17 | I 4.62 | P 2.71 | L 2.43 | M 3.3 | S 3.43 | H 3.54 | N 4.43 | Y 2.21 | W 2.52
L14: S 3.43 | V 2.93 | D 1.37 | E 2.98 | K 1.88 | W 2.22 | M 1.49 | Y 3.26 | A 1.68 | Q 2.24 | C 2.35 | H 2.74 | P 2.09 | I 4.47
M20: H 3.39 | D 1.67 | N 1.88 | R 1.27 | F 3.51 | C 2.27 | Q 1.45 | K 1.49 | E 1.49 | G 1.85 | A 1.01 | P 2.02 | S 2.64 | T 2.35
K16: I 1.93 | T 2.71 | F 3.89 | N 2.96 | L 1.48 | V 2.29 | G 3.19 | C 2.44 | A 2.39 | D 1.76 | E 2.45 | Q 3.29 | M 2.58 | W 2.25
L22: D 1.5 | C 2.69 | T 2.54 | I 1.89 | G 1.5 | K 1.91 | M 3.06 | H 1.44 | P 1.43 | N 1.54 | S 1.45 | Y 2.29 | E 1.93 | Q 2.59
A6: Y 1.73 | L 3.11 | G 3.12 | E 1.64 | D 1.41 | C 3.07 | N 2.69 | R 2.92 | T 2.35 | H 3.17 | P 3.8 | F 3.71 | S 3.05 | M 2.97 | K 2.82
C8: G 3.13 | I 4.17 | D 2 | P 2.04 | V 2.73 | N 2.35 | K 1.84 | H 2.7 | R 1.41 | W 4.11 | T 1.46 | A 2.37 | F 2.82 | Q 1.07 | M 3.9 | S 1.39 | L 2.33 | Y 3.24
L7: V 2.36 | G 2.13 | A 2.37 | C 1.97 | P 2.31 | Q 2.41 | Y 1.81 | T 2.46 | H 1.31 | M 3.54 | N 2.5 | D 2.13 | E 1.02 | K 2.16 | S 1.78 | F 2.12 | R 2.13
A18: I 3.66 | P 1.82 | Y 3.01 | L 2.58 | H 2.23 | W 2.66 | C 2.83 | Q 2.02 | R 1.07 | V 3.7 | D 2.78 | F 4.02 | E 2.7
R9: C 3.38 | H 3.54 | I 1.79 | S 4.18 | G 1.83 | D 2.25 | K 1.69 | N 3.68 | V 2.69 | L 1.63 | F 2.45 | E 4.07 | T 2.37 | Q 4.01
N15: Y 1.24 | E 1.44 | F 3.09 | P 1.75 | G 2.33 | I 3.36 | D 3.27 | V 3.72 | Q 5.09 | L 3.76 | T 1.98 | A 3.2 | H 2.39 | K 2.63
C17: S 2.17 | T 3.57 | P 1.07 | R 1.78 | Q 1.42 | N 1.83 | K 2.36 | A 1.16 | L 2.35 | H 4.06 | D 3.14 | Y 3.7 | I 3.57 | V 4.14 | E 2 | M 1.63
I24: K 1.87 | T 2.21 | V 2.45 | F 2.04 | P 1.71 | A 1.18 | G 1.13 | R 1.5 | S 1.91 | Y 1.29 | Q 1.75 | E 1.36 | W 1.66 | H 1.73 | C 3.03 | L 2.75 | M 2.39 | D 1.52 | N 1.63
L11: Q 2.56 | H 1.6 | R 1.89 | W 2.05 | N 2.33 | F 2.72 | D 3.27 | S 3.62 | K 2.96 | Y 2.67 | E 1.84 | C 3.62 | P 2.84 | T 2.52
V19: T 1.04 | Q 1.84 | N 1.89 | F 1.62 | D 2.58 | W 3.62 | Y 2.76 | A 3.74 | I 1.67 | G 1.6 | L 3.2 | H 3.85
N12: C 3.35 | Q 1.45 | L 2.99 | E 1.84 | H 2.28 | K 2.79 | A 1.09 | Y 3.36 | F 2.97 | V 2.37 | P 2.26 | S 1.77 | M 1.84 | T 2.2 | D 4.53 | R 1.79
T13: N 2.28 | R 2.35 | S 2.09 | K 1.55 | C 2.26 | I 2.04 | E 1.7 | L 2.33 | H 2.02 | Y 2.79
